From patent US20230399388A1 (Sanofi, published 2023)
Numbering of substitutions follows the chain as printed. Like-named read-outs stand apart in the source and are kept apart here. Primed or numbered codes have the meaning given here. Ends that are not written are not given here. Biotin′ = not defined here

Assays:
…-biotin [1] = molecular target: T1, …-biotin (C-terminal biotin); experiment: Biacore, biotin-peptide on SA chip;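 as to kon: purified antibodies injected as twofold dilutions from 0.1 to 10 nM in HBS-EP over streptavidin-captured biotinylated BKR1 or BKR2 ligand peptides, with a random-peptide flow cell as reference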
T1 construct: also called DAKD-b; DAKD-biotin
Description: (§1) For antibody binding kinetics, the instruments used were the BIACORE 2000 or BIACORE 3000 (GE Healthcare), designed for biomolecular interaction analysis (BIA) in real time. The sensor chip used was SA chip (GE Healthcare) with streptavidin covalently immobilized on a carboxymethylated dextran matrix. Each sensor chip has four parallel flow cells (Fc). Every biotinylated BKR1 or BKR2 ligand peptides were immobilized to one of the flow cells 2 to 4 (Fc2 to Fc4) in the SA chip for binding dissociation rate screening and selectivity screening. Flow cell 1 (Fc1) was reserved and immobilized with a random peptide (biotinylated at one terminus) with equal or close peptide length in comparison to the testing ligand peptides as the negative control. In screening assays, cell culture supernatants of the hybridoma clones selected through primary screening of transiently expressed humanized variants were injected over immobilized peptides. Hybridoma cell culture media was also injected over the chip surface as blank to establish a baseline. After subtracting signals of Fc1 and blank buffer runs, the dissociation rate of the antibodies from the supernatants to each peptide was analyzed and ranked using BIAevaluation software. […] In kinetics analysis, the corresponding biotin-peptides identified in screening for the testing antibody were immobilized in Fc2 to Fc4 while Fc1 with a random peptide used as reference cell. Each purified antibody selected from screenings were made into a series of two fold dilutions in running buffer (1×HBS-EP buffer, GE Healthcare) between 0.1 to 10 nM. Binding association rate, dissociation rate and the overall affinity were calculated in BIAevaluation.

RRPPGFSPFR-biotin [2] = molecular target: T2, RRPPGFSPFR-biotin (mouse); experiment: Biacore, biotin-peptide on SA chip;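 as to kon: purified antibodies injected as twofold dilutions from 0.1 to 10 nM in HBS-EP over streptavidin-captured biotinylated BKR1 or BKR2 ligand peptides, with a random-peptide flow cell as reference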
T2 construct: also called KLP-b; KLP-biotin
T2 peptide: RRPPGFSPFR-biotin
Description: as §1

RRPPGFSPF-biotin [3] = molecular target: T3, RRPPGFSPF-biotin (mouse); experiment: Biacore, biotin-peptide on SA chip;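 as to kon: purified antibodies injected as twofold dilutions from 0.1 to 10 nM in HBS-EP over streptavidin-captured biotinylated BKR1 or BKR2 ligand peptides, with a random-peptide flow cell as reference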
T3 construct: also called DAKLP-b; DAKLP-biotin
T3 peptide: RRPPGFSPF-{Biotin′}
Description: as §1

KRPPGFSPFR-biotin [4] = molecular target: T4, KRPPGFSPFR-biotin; experiment: Biacore, biotin-peptide on SA chip;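 as to kon: purified antibodies injected as twofold dilutions from 0.1 to 10 nM in HBS-EP over streptavidin-captured biotinylated BKR1 or BKR2 ligand peptides, with a random-peptide flow cell as reference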
T4 construct: also called KD-b; KD-biotin
T4 peptide: KRPPGFSPFR-biotin
Description: as §1

kallidin [5] = molecular target: T5, kallidin; experiment: cell-based or functional assay
T5 peptide: KRPPGFSPFR

desArg10kallidin [6] = experiment: cell-based or functional assay
[7] = molecular target: T6, desArg10kallidin like peptide (mouse); experiment: cell-based or functional assay
T6 peptide: RRPPGFSPF

desArg10kallidin [8] = experiment: cell-based or functional assay; remark: listed apart in the source
…-biotin [9] = molecular target: T1, …-biotin; experiment: Biacore, biotin-peptide on SA chip; remark: listed apart in the source
Description: as §1

RRPPGFSPFR-biotin [10] = molecular target: T2, RRPPGFSPFR-biotin; experiment: Biacore, biotin-peptide on SA chip
Description: as §1

RRPPGFSPF-biotin [11] = molecular target: T3, RRPPGFSPF-biotin; experiment: Biacore, biotin-peptide on SA chip
Description: as §1

KRPPGFSPFR-biotin [12] = molecular target: T4, KRPPGFSPFR-biotin; experiment: Biacore, biotin-peptide on SA chip
Description: as §1

kallidin [13] = molecular target: T5, kallidin; experiment: cell-based or functional assay
biotin-RPPGFSPF = molecular target: T7, biotin-RPPGFSPF (N-terminal biotin); experiment: ELISA, biotin-peptide on streptavidin plate
T7 construct: also called b-DABK; biotin-DABK

RPPGFSPF-biotin = molecular target: T8, RPPGFSPF-biotin (C-terminal biotin); experiment: ELISA, biotin-peptide on streptavidin plate
T8 construct: also called DABK-b

…-biotin [14] = molecular target: T1, …-biotin; experiment: Biacore, biotin-peptide on SA chip; remark: listed apart in the source
KRPPGFSPFR-biotin [15] = molecular target: T4, KRPPGFSPFR-biotin; experiment: Biacore, biotin-peptide on SA chip
…-biotin [16] = molecular target: T9, …-biotin (C-terminal biotin); experiment: ELISA, biotin-peptide on streptavidin plate
T9 construct: also called BK-b

[17] = molecular target: T10, biotin-… (N-terminal biotin); experiment: ELISA, biotin-peptide on streptavidin plate
T10 construct: also called b-BK

B1: humanized F151 variant HC2a/LC2a (antibody, human IgG1, V domains shown)
VH: QIQLVQSGAEVKKPGASVKVSCKASGYSFTDYNIYWVKQSPGKGLEWIGYFDPYNGNTGYNQKFRGKATLTVDKSSSTAYMHLSSLTSEESAVYYCANYYRYDDHAMDYWGQGTSVTVSS
VL: DIVMTQSPSSLSASVGDRVTISCKSSQSLLYSSNQKNYLAWYQQKPGKSPKPLIYWASTRESGVPDRFSGSGSGTDFTLTISSVQAEDLATYYCQQYYSYPWTFGGGTKLEIK
notes: also called LC2axHC2a
…-biotin [1]
  Kd: 0.0183 nM
  koff: 1.22e-05 s⁻¹
  kon: 666000 M⁻¹ s⁻¹
RRPPGFSPFR-biotin [2]
  Kd: 0.0434 nM
  koff: 2.68e-05 s⁻¹
  kon: 615000 M⁻¹ s⁻¹
RRPPGFSPF-biotin [3]
  Kd: 0.0138 nM
  koff: 5.67e-06 s⁻¹
  kon: 410000 M⁻¹ s⁻¹
KRPPGFSPFR-biotin [4]
  Kd: 0.00871 nM
  koff: 6.12e-06 s⁻¹
  kon: 703000 M⁻¹ s⁻¹

B2: humanized F151 variant HC1/LC1 (antibody, V domains shown)
VH: B1 VH with Q1E, A9P, G44S, Y80F, E90D
VL: B1 VL with T5S, S12A, I21M, S69T, T91I
notes: also called LC1xHC1
…-biotin [1]
  Kd: 0.0145 nM
  koff: 6e-06 s⁻¹
  kon: 416000 M⁻¹ s⁻¹
RRPPGFSPFR-biotin [2]
  Kd: 0.00554 nM
  koff: 2.67e-06 s⁻¹
  kon: 481000 M⁻¹ s⁻¹
RRPPGFSPF-biotin [3]
  Kd: 0.016 nM
  koff: 7.96e-06 s⁻¹
  kon: 500000 M⁻¹ s⁻¹
KRPPGFSPFR-biotin [4]
  Kd: 0.000394 nM
  koff: 1.74e-07 s⁻¹
  kon: 424000 M⁻¹ s⁻¹

B3: humanized F151 variant HC2b/LC2a (antibody, human IgG1, V domains shown)
VH: B1 VH with Q62E
VL: B1 VL
notes: also called LC2axHC2b
…-biotin [1]
  Kd: 0.0257 nM
  koff: 1.05e-05 s⁻¹
  kon: 417000 M⁻¹ s⁻¹
RRPPGFSPFR-biotin [2]
  Kd: 0.00576 nM
  koff: 2.2e-06 s⁻¹
  kon: 401000 M⁻¹ s⁻¹
RRPPGFSPF-biotin [3]
  Kd: 0.0297 nM
  koff: 1.3e-05 s⁻¹
  kon: 446000 M⁻¹ s⁻¹
KRPPGFSPFR-biotin [4]
  Kd: 0.00472 nM
  koff: 1.66e-06 s⁻¹
  kon: 375000 M⁻¹ s⁻¹

B4: humanized F151 variant HC2c/LC2b (antibody, human IgG1, V domains shown)
VH: B1 VH with L86K
VL: B1 VL with L89K
notes: also called LC2bxHC2c
…-biotin [1]
  Kd: 0.0901 nM
  koff: 4.34e-05 s⁻¹
  kon: 481000 M⁻¹ s⁻¹
RRPPGFSPFR-biotin [2]
  Kd: 0.0198 nM
  koff: 1.02e-05 s⁻¹
  kon: 516000 M⁻¹ s⁻¹
RRPPGFSPF-biotin [3]
  Kd: 0.0121 nM
  koff: 1.1e-05 s⁻¹
  kon: 903000 M⁻¹ s⁻¹
KRPPGFSPFR-biotin [4]
  Kd: 0.0174 nM
  koff: 9.08e-06 s⁻¹
  kon: 564000 M⁻¹ s⁻¹

B5: I22 (antibody, V domains shown)
VH: EVQLQQSGAELVRSGASVKLSCTASGFNIKDYYMHWVKQRPEQGLEWIGWVDPENGDSDYAPKFQGKATMTADTSSNTVYLQFSSLTSEDTAVYYCNAFEYDGNYSPLDFWGQGTSVTVSS
VL: DIVMTQSPSSLSVSAGEKVTMSCKSSQSLLNSGNQKNYLAWYQQKPGQPPKLLIYGASTRESGVPDRFTGSGSGTDFTLTISSVQAEDLAVYYCQNDHSYPLTFGAGTKLELK
notes: Murine hybridoma antibody; Family 1
Kallidin [5]
  FLIPR (nM), KD (15 nM): 25 nM
desArg10kallidin [6]
  FLIPR (nM), DAKD (50 nM): 9.4 nM
[7]
  Mean Molar Ratio, ligand depletion, calcium mobilization in HEK mBKR1 cells: 0.21 molar ratio
desArg10kallidin [8]
  Mean Molar Ratio, ligand depletion, calcium mobilization in HEK mBKR1 cells: 0.07 molar ratio
…-biotin [9]
  Kd: 0.217 nM
  koff: 0.000319 s⁻¹
RRPPGFSPFR-biotin [10]
  Kd: 0.00182 nM
  koff: 1.03e-05 s⁻¹
RRPPGFSPF-biotin [11]
  Kd: ≤ 0.00183 nM
  koff: ≤ 1e-06 s⁻¹
KRPPGFSPFR-biotin [12]
  Kd: 0.0044 nM
  koff: 2.1e-05 s⁻¹
Kallidin [13]
  Mean Molar Ratio, ligand depletion, calcium mobilization in MRC5 cells: 0.22 molar ratio

B6: I54 (antibody, V domains shown)
VH: B5 VH
VL: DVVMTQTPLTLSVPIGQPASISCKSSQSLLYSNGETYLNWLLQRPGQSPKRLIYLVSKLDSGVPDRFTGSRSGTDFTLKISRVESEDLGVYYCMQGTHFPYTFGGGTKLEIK
notes: Murine hybridoma antibody; Family 1; also called 154
Kallidin [5]
  FLIPR (nM), KD (15 nM): 30 nM
desArg10kallidin [6]
  FLIPR (nM), DAKD (50 nM): 8.1 nM
[7]
  Mean Molar Ratio, ligand depletion, calcium mobilization in HEK mBKR1 cells: 0.35 molar ratio
desArg10kallidin [8]
  Mean Molar Ratio, ligand depletion, calcium mobilization in HEK mBKR1 cells: 0.15 molar ratio
…-biotin [9]
  Kd: 0.00953 nM
  koff: 3.06e-05 s⁻¹
RRPPGFSPFR-biotin [10]
  Kd: 0.00956 nM
  koff: 6.04e-05 s⁻¹
RRPPGFSPF-biotin [11]
  Kd: 0.0117 nM
  koff: 5.66e-05 s⁻¹
KRPPGFSPFR-biotin [12]
  Kd: 0.0112 nM
  koff: 3.88e-05 s⁻¹
biotin-RPPGFSPF
  binding result: binds
RPPGFSPF-biotin
  binding result: binds
Kallidin [13]
  Mean Molar Ratio, ligand depletion, calcium mobilization in MRC5 cells: 0.3 molar ratio

B7: C63 (antibody, V domains shown)
VH: EVKLEESGGGLVQPGGSMKLSCVASGFTFSNYWMNWVRQSPEKGLEWVAEIRSKSNNYATHYAESVKGRFTISRDDSKSSVYLQMNNLRAEDTGIYYCIGEDYGGDYWGQGTSVTVSS
VL: DIVMSQSPSSLAVSVGEKVTMSCKSSQSLLYSSDQRNYLAWYQQRSGQSPKLLIYWASTRESGVPDRFTGSGSGTDFTLTISSVKAEDLAVYYCQQYYSYPYTFGGGTKLEIK
notes: Murine hybridoma antibody; Family 2
[7]
  Mean Molar Ratio, ligand depletion, calcium mobilization in HEK mBKR1 cells: 5.85 molar ratio
desArg10kallidin [8]
  Mean Molar Ratio, ligand depletion, calcium mobilization in HEK mBKR1 cells: 0.08 molar ratio
…-biotin [14]
  Kd: 0.142 nM
KRPPGFSPFR-biotin [15]
  Kd: 0.221 nM
…-biotin [9]
  Kd: 0.142 nM
  koff: 9.36e-05 s⁻¹
RRPPGFSPFR-biotin [10]
  binding result: no binding
RRPPGFSPF-biotin [11]
  binding result: no binding
KRPPGFSPFR-biotin [12]
  Kd: 0.221 nM
  koff: 0.0001 s⁻¹
…-biotin [16]
  binding result: no binding
[17]
  binding result: no binding
Kallidin [13]
  Mean Molar Ratio, ligand depletion, calcium mobilization in MRC5 cells: 0.23 molar ratio

B8: humanized F151 variant HC3a/LC3a (antibody, human IgG1, V domains shown)
VH: QIQLVQSGAEVKKPGASVKVSCKASGYSFTDYNIYWVRQAPGQGLEWIGYFDPYNGNTGYNQKFRGRATLTVDKSTSTAYMELRSLRSDDTAVYYCANYYRYDDHAMDYWGQGTLVTVSS
VL: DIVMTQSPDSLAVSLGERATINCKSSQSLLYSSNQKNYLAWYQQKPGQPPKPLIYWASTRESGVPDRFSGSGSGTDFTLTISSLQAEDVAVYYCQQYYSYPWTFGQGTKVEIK
notes: also called hF151
…-biotin [1]
  Kd: 0.0253 nM
  koff: 1.28e-05 s⁻¹
  kon: 506000 M⁻¹ s⁻¹
RRPPGFSPFR-biotin [2]
  Kd: 0.00106 nM
  koff: 5.43e-07 s⁻¹
  kon: 502000 M⁻¹ s⁻¹
RRPPGFSPF-biotin [3]
  Kd: 0.0305 nM
  koff: 1.42e-05 s⁻¹
  kon: 465000 M⁻¹ s⁻¹
KRPPGFSPFR-biotin [4]
  Kd: 0.00678 nM
  koff: 2.95e-06 s⁻¹
  kon: 427000 M⁻¹ s⁻¹

B9: humanized F151 variant HC3b/LC3b (antibody, human IgG1, V domains shown)
VH: B8 VH with I2V, I48M, A68V, L70M, V72T, K74T
VL: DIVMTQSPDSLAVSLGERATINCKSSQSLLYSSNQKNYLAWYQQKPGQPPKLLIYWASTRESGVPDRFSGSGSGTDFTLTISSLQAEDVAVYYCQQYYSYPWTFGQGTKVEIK
notes: also called LC3bxHC3b
…-biotin [1]
  Kd: 0.135 nM
  koff: 5.15e-05 s⁻¹
  kon: 385000 M⁻¹ s⁻¹
RRPPGFSPFR-biotin [2]
  Kd: 0.526 nM
  koff: 0.000272 s⁻¹
  kon: 539000 M⁻¹ s⁻¹
RRPPGFSPF-biotin [3]
  Kd: 40.5 nM
  koff: 0.00276 s⁻¹
  kon: 70400 M⁻¹ s⁻¹
KRPPGFSPFR-biotin [4]
  Kd: 0.0144 nM
  koff: 3.02e-06 s⁻¹
  kon: 251000 M⁻¹ s⁻¹
